Measurements published in PMC10453832, “Increased Actin Binding Is a Shared Molecular Consequence of Numerous SCA5 Mutations in β-III-Spectrin” (Cells, 2023).
Where a chain is given by its changes, count along the chain named. Names may count otherwise. One block for each binder: values may come before it.

Tests used:
[1] = target: T1, F-actin from rabbit skeletal muscle (rabbit, UniProt P68135 1-377); assay: co-sedimentation; 2 µM ABD protein with increasing F-actin (3-120 µM) in F-buffer (10 mM Tris pH 7.5, 150 mM NaCl, 0.5 mM ATP, 2 mM MgCl2, 1 mM DTT); 30 min at room temperature; 50,000 RPM 30 min 25 °C; ABD left in supernatant quantified by SDS-PAGE and Coomassie; one-site fit with Bmax constrained to 1; conditions: both partners purified
[2] = target: T1, F-actin from rabbit skeletal muscle; assay: as above; conditions: both partners purified; remark: listed apart in the source

Kd [1]: 55.2 µM
B1: β-III-spectrin actin-binding domain, wild-type (domain or fragment)
chain: MSSTLSPTDFDSLEIQGQYSDINNRWDLPDSDWDNDSSSARLFERSRIKALADEREAVQKKTFTKWVNSHLARVTCRVGDLYSDLRDGRNLLRLLEVLSGEILPKPTKGRMRIHCLENVDKALQFLKEQKVHLENMGSHDIVDGNHRLTLGLVWTIILRFQIQDISVETEDNKEKKSAKDALLLWCQMKTAGYPNVNVHNFTTSWRDGLAFNAIVHKHRPDLLDFESLKKCNAHYNLQNAFNLAEKELGLTKLLDPEDVNVDQPDEKSIITYVATYYHYFSKMK
notes: Construct pE-SUMO-ABD WT; also called ABD WT; wild-type ABD; source: Rosetta 2 (DE3) E. coli, purified (Ni-NTA, tag cleaved with Ulp1, second Ni-NTA)

Kd [1]: 15.3 µM
Kd [2]: 15.5 µM
B2: β-III-spectrin actin-binding domain Y272H (domain or fragment)
chain: B1 chain with Y272H
notes: mutation found in a patient and a parent; also called Y272H ABD; source: Rosetta 2 (DE3) E. coli, purified (Ni-NTA, tag cleaved with Ulp1, second Ni-NTA)

Kd [1]: 7.3 µM
B3: β-III-spectrin actin-binding domain D255G (domain or fragment)
chain: B1 chain with D255G
notes: mutation found in a patient; also called D255G ABD; source: Rosetta 2 (DE3) E. coli, purified (Ni-NTA, tag cleaved with Ulp1, second Ni-NTA)

Kd [1]: < 1 µM
B4: β-III-spectrin actin-binding domain L253P (domain or fragment)
chain: B1 chain with L253P
notes: Construct pE-SUMO-ABD-L253P; Mutation found in SCA5 patients; also called L253P ABD; source: Rosetta 2 (DE3) E. coli, purified (Ni-NTA, tag cleaved with Ulp1, second Ni-NTA)

Kd [1]: 10.2 µM
B5: β-III-spectrin actin-binding domain V58M (domain or fragment)
chain: B1 chain with V58M
notes: mutation found in a patient; also called V58M ABD; source: Rosetta 2 (DE3) E. coli, purified (Ni-NTA, tag cleaved with Ulp1, second Ni-NTA)

Kd [1]: 2.4 µM
B6: β-III-spectrin actin-binding domain T62I (domain or fragment)
chain: B1 chain with T62I
notes: mutation found in a patient; also called T62I ABD; source: Rosetta 2 (DE3) E. coli, purified (Ni-NTA, tag cleaved with Ulp1, second Ni-NTA)

Kd [1]: < 1 µM
B7: β-III-spectrin actin-binding domain F160C (domain or fragment)
chain: B1 chain with F160C
notes: mutation found in a patient; The methods paragraph prints F16C, everywhere else F160C; also called F160C ABD; F16C (as printed in the methods); source: Rosetta 2 (DE3) E. coli, purified (Ni-NTA, tag cleaved with Ulp1, second Ni-NTA)

Kd [1]: 6.7 µM
B8: β-III-spectrin actin-binding domain H278R (domain or fragment)
chain: B1 chain with H278R
notes: mutation found in a patient; also called H278R ABD; source: Rosetta 2 (DE3) E. coli, purified (Ni-NTA, tag cleaved with Ulp1, second Ni-NTA)

Kd [1]: < 1 µM
B9: β-III-spectrin actin-binding domain K65E (domain or fragment)
chain: B1 chain with K65E
notes: mutation found in a patient; also called K65E ABD; source: Rosetta 2 (DE3) E. coli, purified (Ni-NTA, tag cleaved with Ulp1, second Ni-NTA)

Kd [1]: < 1 µM
B10: β-III-spectrin actin-binding domain T271I (domain or fragment)
chain: B1 chain with T271I
notes: mutation found in a patient; also called T271I ABD; source: Rosetta 2 (DE3) E. coli, purified (Ni-NTA, tag cleaved with Ulp1, second Ni-NTA)

Kd [1]: < 1 µM
B11: β-III-spectrin actin-binding domain K61E (domain or fragment)
chain: B1 chain with K61E
notes: mutation found in a patient; also called K61E ABD; source: Rosetta 2 (DE3) E. coli, purified (Ni-NTA, tag cleaved with Ulp1, second Ni-NTA)
